This experiment has as its target T1, HIS-PLK1 (UniProt P53350 1-603).
T1 construct: Polo-like kinase 1 (PLK1), HIS tagged, expressed in bacteria via pET28a; also called HIS tagged PLK1; source: bacterially produced (pET28a system)
In words: pull-down; GST-CHK1 (insect cells) as bait, HIS-PLK1 (bacterial) as prey; 1 μg of each in NETN buffer (20 mM Tris–HCl pH 8.0, 0.15 M NaCl, 1 mM EDTA, 0.5% NP-40), 4°C overnight; glutathione-sepharose beads; immunoblotting. The following applies: both partners purified.

T1 sequence (P53350 whole entry): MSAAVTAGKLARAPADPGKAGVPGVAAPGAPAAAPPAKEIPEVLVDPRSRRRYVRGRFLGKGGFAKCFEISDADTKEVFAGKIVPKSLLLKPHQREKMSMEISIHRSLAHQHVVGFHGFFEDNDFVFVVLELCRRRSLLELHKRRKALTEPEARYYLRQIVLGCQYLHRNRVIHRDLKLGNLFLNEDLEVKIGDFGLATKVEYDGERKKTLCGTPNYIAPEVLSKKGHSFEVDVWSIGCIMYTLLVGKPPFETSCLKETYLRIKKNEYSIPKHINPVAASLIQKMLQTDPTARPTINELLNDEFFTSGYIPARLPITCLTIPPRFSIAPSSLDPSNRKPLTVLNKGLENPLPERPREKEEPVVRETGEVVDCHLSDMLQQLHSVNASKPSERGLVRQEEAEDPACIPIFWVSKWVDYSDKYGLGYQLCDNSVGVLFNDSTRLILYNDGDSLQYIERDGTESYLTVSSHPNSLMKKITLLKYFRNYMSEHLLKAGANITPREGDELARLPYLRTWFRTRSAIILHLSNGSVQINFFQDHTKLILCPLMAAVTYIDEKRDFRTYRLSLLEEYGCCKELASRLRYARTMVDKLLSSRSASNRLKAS

B1: Recombinant human active protein GST-CHK1 (enzyme, UniProt O14757 1-476, looked up)
chain: MAVPFVEDWDLVQTLGEGAYGEVQLAVNRVTEEAVAVKIVDMKRAVDCPENIKKEICINKMLNHENVVKFYGHRREGNIQYLFLEYCSGGELFDRIEPDIGMPEPDAQRFFHQLMAGVVYLHGIGITHRDIKPENLLLDERDNLKISDFGLATVFRYNNRERLLNKMCGTLPYVAPELLKRREFHAEPVDVWSCGIVLTAMLAGELPWDQPSDSCQEYSDWKEKKTYLNPWKKIDSAPLALLHKILVENPSARITIPDIKKDRWYNKPLKKGAKRPRVTSGGVSESPSGFSKHIQSNLDFSPVNSASSEENVKYSSSQPEPRTGLSLWDTSPSYIDKLVQGISFSQPTCPDHMLLNSQLLGTPGSSQNPWQRLVKRMTRFFTKLDADKSYQCLKETCEKLGYQWKKSCMNQVTISTTDRRNNKLIFKVNLLEMDDKILVDFRLSKGDGLEFKRHFLKIKGKLIDIVSSQKIWLPAT
notes: Human checkpoint kinase CHK1, recombinant active protein; source: bought: R&D Systems (1630-KS-010), produced in insect cells
In the case of B1, the binding result is listed as “binds”.

The record behind these values is publication PMC8287952, “PARP1 and CHK1 coordinate PLK1 enzymatic activity during the DNA damage response to promote homologous recombination-mediated repair” (Nucleic Acids Research, 2021).
